The record followed here is patent publication US20240400654A1.

The term Kd denotes the constant that tells how readily two partners part at equilibrium. Read a low Kd as tighter binding. As usually defined, the koff is the rate constant with which the complex falls apart. Low values mean a long-lived complex, high ones a short-lived complex. One may read the kon as the second-order rate constant of association.

Where “and” joins values, the source holds several entries; their conditions need not be identical. Equal entries are not always repeated.

Assay [1] deals with HRgpA-6H (Porphyromonas gingivalis) (UniProt P28784). In words: ELISA; non-related FASEBA supernatant on HRgpA-6H coat; secondary mouse anti-human IgG F(ab')2 HRP.
Assay [2] has the same target. In words: ELISA; non-related FASEBA supernatant on HRgpA-6H coat; secondary goat anti-human IgG (H+L) HRP. (In general: ELISA stands for enzyme-linked immunosorbent assay.)
Assay [3] shares this target. In words: ELISA; non-related FASEBA supernatant on HRgpA-6H coat; secondary goat anti-human IgG F(ab')2 HRP.
Assay [4] has the same target. The assay can be described thus: ELISA; non-related FASEBA supernatant on HRgpA-6H coat; secondary Anti-BSA (HRP).
The target in assay [5] is whole P. gingivalis cells (strain W83) (Porphyromonas gingivalis).
For assay [6], the target named is HRgpA-6H (Porphyromonas gingivalis) (UniProt P28784). The assay can be described thus: SPR Biacore 8K, 25 C; table lists HRgpA-6H as ligand, antibody as analyte. For orientation: SPR reads the build-up and loss of mass on a sensor chip optically.
In assay [7] the target is whole P. gingivalis cells (strain W83) (Porphyromonas gingivalis). The assay can be described thus: gold-labelled KB001, scanning electron microscopy, W83.
The target in assay [8] is HRgpA-6H (Porphyromonas gingivalis) (UniProt P28784). The assay can be described thus: SPR Biacore 8K, 25 C; HRGPA-6H immobilized on CM5, KB001-WT-Ab as analyte.
The target is the same in assay [9]. In words: ELISA, FASEBA screening, coated HRgpA-6H 0.0625 ug/ml.
The target is the same in assay [10]. The assay can be described thus: ELISA, FASEBA screening, coated HRgpA-6H; library clone found WT, OD over parental WT Fab OD.
Assay [11] has the same target. The assay can be described thus: SPR Biacore 8K; table lists HRgpA-6H as ligand, antibody as analyte.

“non-related FASEBA supernatant (NC) (Fab)”: the OD450 in [1] (coating antigen 1 µg/ml) was determined as 0.552; in assay [1] (coating antigen 2 µg/ml) it was 0.288; in assay [2] (coating antigen 1 µg/ml) it was 1.15; in assay [2] (coating antigen 2 µg/ml), 0.736; in assay [3], 0.672; in assay [4] it was 1.09.

B1: KB001 (antibody, V domains shown)
VH: EVQLKQSGPGLVAPSQSLSITCTVSGFSLSIYSVHWVRQPPGKGLEWLGMIWGGGSSDYNSALKSRLSISKDNSKSQVFLKMNSLQTDDTAMYYCARNGNFYAMDYWGQGTSVTVSS
VL: QIVLTQSPAIMSASLGERVTMTCTASSSVSSSFLHWYQQKPGSSPQLWIYSTSNLASGVPARFSGSGSGTSYSLTISSMEAEDAATYYCHQYHHSPYIYTFGGGTKLEIKR
With B1, in assay [5], the dissociation constant (Kd) came to 11.4 nM; the Response was 0.297 and 0.216 and 0.186; the koff was found to be 0.000219 s⁻¹; the kon worked out at 19200 M⁻¹ s⁻¹. In assay [6], this molecule came in with a Kd of 2.02 nM, a koff of 8.62e-05 s⁻¹ and a kon of 42600 M⁻¹ s⁻¹. Also, the IgG molecules bound per bacterium (molecules per bacterium) in [7] is 60 and 80. Also, in assay [8], the dissociation constant (Kd) was 2.02 nM, the koff was 8.62e-05 s⁻¹ and the kon stood at 42600 M⁻¹ s⁻¹.

B2: KB001 parental mouse Fab FASEBA (WT) (Fab, V domains shown)
VH: EVQLKQSGPGLVAPSQSLSITCTVSGFSLSIYSVHWVRQPPGKGLEWLGMIWGGGSSDYNSALKSRLSISKDNSKSQVFLKMNSLQTDDTAMYYCARNGNFYAMDYWGQGTSVTVSS
VL: QIVLTQSPAIMSASLGERVTMTCTASSSVSSSFLHWYQQKPGSSPQLWIYSTSNLASGVPARFSGSGSGTSYSLTISSMEAEDAATYYCHQYHHSPYIYTFGGGTKLEIK
In [9], B2 came in with an OD450 nm of 0.831. The Ratio OD(Variant)/OD(WT) in assay [10] worked out at 0.956.

B3: H8 K222A (antibody, V domains shown)
VH: QVQLQESGPGLVKPSETLSLTCTVSGFSLSIYSVHWIRQPPGKGLEWIGMIWGGGSSDYNSALKSRLTISKDTSKNQVSLKLSSVTAADTAVYYCARNGNFYAMDYWGQGTLVTVSS
VL: EIVLTQSPGTLSLSPGERATLSCTASSSVSSSFLHWYQQKPGQAPQLWIYSTSNLASGIPARFSGSGSGTDYTLTISRLEPEDFATYYCHQYHHSPYIYTFGGGTKLEIK
Take B3: in assay [11], the dissociation constant Kd worked out at 0.57 nM, the koff is 3.3e-05 s⁻¹ and the association rate constant (kon) is 58000 M⁻¹ s⁻¹.

B4: H14 K222A (antibody, V domains shown)
VH: QVQLQESGPGLVKPSETLSLTCTVSGFSLSIYSVHWIRQPPGKGLEWLGMIWGGGSSDYNSALKSRLTISKDTSKNQVSLKLSSVTAADTAMYYCARNGNFYAMDYWGQGTLVTVSS
VL: EIVLTQSPGTLSLSPGERATLSCTASSSVSSSFLHWYQQKPGQAPQLWIYSTSNLASGIPDRFSGSGSGTDYTLTISRLEPEDFAVYYCHQYHHSPYIYTFGGGTKLEIK
Regarding B4, in assay [11], the Kd was determined as 1.3 nM, the koff is 6.53e-05 s⁻¹ and the kon was 50100 M⁻¹ s⁻¹.
